Reference: the supplement of paper PMC9732359
± gives the uncertainty stated by the source.

Assay: protein stability index of a GFP-peptide fusion (yeast GPS) (PSI 1-4); higher = more stable; sorted into four equal gates, so the index is relative within each strain
Outline: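 Tiled 17-residue peptides from yeast proteins were fused downstream of GFP on a plasmid that also expresses Cherry, and the pooled library was carried in yeast. Mid-log cultures grown in leucine-free medium were sorted into four equal gates by GFP/Cherry fluorescence ratio. Plasmids from each gate were PCR-amplified and Illumina-sequenced, and reads were assigned to strains by barcodes. Each peptide's protein stability index is the sum, over gates, of the gate's read frequency multiplied by its gate number.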

## SRQVQKRPRSRTLTAVH [RPS7A]
doa10∆
  protein stability index: 2.54 ± 0.035
pdr5∆
  protein stability index: 2.33 ± 0.034
san1∆
  protein stability index: 2.41 ± 0.037
ubr1∆
  protein stability index: 2.03 ± 0.032

## INESAENFSNGISLVME [MED1]
doa10∆
  protein stability index: 3.35 ± 0.11
pdr5∆
  protein stability index: 3.16 ± 0.07
san1∆
  protein stability index: 3.07 ± 0.055
ubr1∆
  protein stability index: 3.1 ± 0.045

## DQLLTDLIETSFTCFAQ [NUT1]
doa10∆
  protein stability index: 2.56 ± 0.093
pdr5∆
  protein stability index: 1.9 ± 0.076
san1∆
  protein stability index: 1.88 ± 0.11
ubr1∆
  protein stability index: 2.91 ± 0.074

## NAVSFDTTFSDFKEVED [SRB4]
doa10∆
  protein stability index: 3.13 ± 0.043
pdr5∆
  protein stability index: 2.53 ± 0.039
san1∆
  protein stability index: 2.6 ± 0.039
ubr1∆
  protein stability index: 2.74 ± 0.039

## GFVRNSFFSGLSPPEFL [RPO31]
doa10∆
  protein stability index: 2.99 ± 0.077
pdr5∆
  protein stability index: 2.95 ± 0.079
san1∆
  protein stability index: 3.11 ± 0.08
ubr1∆
  protein stability index: 3.13 ± 0.052

## QNSANNNSDDEDVDDEE [IRR1]
doa10∆
  protein stability index: 3.28 ± 0.14
pdr5∆
  protein stability index: 3.22 ± 0.15
san1∆
  protein stability index: 3.62 ± 0.087
ubr1∆
  protein stability index: 3.34 ± 0.1

## TVAHIQYDFKAVLEEND [RPN14]
doa10∆
  protein stability index: 1.95 ± 0.12
pdr5∆
  protein stability index: 2.72 ± 0.2
san1∆
  protein stability index: 2.26 ± 0.11
ubr1∆
  protein stability index: 2.28 ± 0.24

## EKKPAAKKTSTSTDGKK [HTB1]
doa10∆
  protein stability index: 3.33 ± 0.21
pdr5∆
  protein stability index: 3.07 ± 0.11
san1∆
  protein stability index: 2.85 ± 0.18
ubr1∆
  protein stability index: 3.65 ± 0.25

## CIIFMDEVDAIGGRRFS [RPT4]
doa10∆
  protein stability index: 2.38 ± 0.089
pdr5∆
  protein stability index: 2.13 ± 0.075
san1∆
  protein stability index: 2.88 ± 0.1
ubr1∆
  protein stability index: 2.43 ± 0.099

## EGQADIDMESDVEDDDK [POP7]
doa10∆
  protein stability index: 3.37 ± 0.095
pdr5∆
  protein stability index: 3.18 ± 0.11
san1∆
  protein stability index: 3.3 ± 0.07
ubr1∆
  protein stability index: 3.27 ± 0.042

## IFTDAGRVYRPLFIVED [RPB2]
doa10∆
  protein stability index: 2.16 ± 0.066
pdr5∆
  protein stability index: 2.51 ± 0.08
san1∆
  protein stability index: 2.06 ± 0.074
ubr1∆
  protein stability index: 1.89 ± 0.033

## TITNSSSSSDIIVPDLI [YML103C/NUP188]
doa10∆
  protein stability index: 2.87 ± 0.081
pdr5∆
  protein stability index: 3.07 ± 0.052
san1∆
  protein stability index: 2.83 ± 0.061
ubr1∆
  protein stability index: 3.05 ± 0.056

## DNVVRFLNEARDKAGRL [RPO21]
doa10∆
  protein stability index: 2.48 ± 0.063
pdr5∆
  protein stability index: 1.61 ± 0.056
san1∆
  protein stability index: 2.56 ± 0.14
ubr1∆
  protein stability index: 1.76 ± 0.053

## EDNEMLEDLFSYRNGMA [YJR042W/NUP85]
doa10∆
  protein stability index: 2.02 ± 0.082
pdr5∆
  protein stability index: 1.89 ± 0.086
san1∆
  protein stability index: 2.65 ± 0.089
ubr1∆
  protein stability index: 1.95 ± 0.079

## KTPEEVEVYAKIFWERL [ISW2]
doa10∆
  protein stability index: 1.74 ± 0.081
pdr5∆
  protein stability index: 2.91 ± 0.17
san1∆
  protein stability index: 3.03 ± 0.17
ubr1∆
  protein stability index: 3.29 ± 0.085

## PQNTTATTGGLFGSKPQ [YGR119C/NUP57]
doa10∆
  protein stability index: 3.33 ± 0.1
pdr5∆
  protein stability index: 3.36 ± 0.1
san1∆
  protein stability index: 3.32 ± 0.13
ubr1∆
  protein stability index: 3.53 ± 0.17

## NSSSMEEVMRIALMGQD [ESC2]
doa10∆
  protein stability index: 2.69 ± 0.068
pdr5∆
  protein stability index: 2.67 ± 0.075
san1∆
  protein stability index: 2.19 ± 0.12
ubr1∆
  protein stability index: 2.62 ± 0.049

## NQSFIQQKANLLSSSNF [COR1]
doa10∆
  protein stability index: 2.17 ± 0.067
pdr5∆
  protein stability index: 1.91 ± 0.069
san1∆
  protein stability index: 2.04 ± 0.083
ubr1∆
  protein stability index: 1.76 ± 0.042

## LKYYQDLKNTRMKSITS [SNF5]
doa10∆
  protein stability index: 1.45 ± 0.23
pdr5∆
  protein stability index: 2.24 ± 0.19
san1∆
  protein stability index: 2.4 ± 0.15
ubr1∆
  protein stability index: 2.98 ± 0.22

## TNSTYNPASATDNMSGR [YJL039C/NUP192]
doa10∆
  protein stability index: 2.71 ± 0.058
pdr5∆
  protein stability index: 2.73 ± 0.063
san1∆
  protein stability index: 2.47 ± 0.054
ubr1∆
  protein stability index: 2.56 ± 0.052

## EEFAYVDPARRQILFKY [MED6]
doa10∆
  protein stability index: 2.57 ± 0.085
pdr5∆
  protein stability index: 2.19 ± 0.061
san1∆
  protein stability index: 2.02 ± 0.09
ubr1∆
  protein stability index: 2.06 ± 0.053

## RSWNEPSKSQTNFKEEI [YML103C/NUP188]
doa10∆
  protein stability index: 2.9 ± 0.12
pdr5∆
  protein stability index: 2.98 ± 0.13
san1∆
  protein stability index: 3.17 ± 0.12
ubr1∆
  protein stability index: 3.11 ± 0.075

## IIVKILYYRPHINKKSQ [GRR1]
doa10∆
  protein stability index: 1.66 ± 0.096
pdr5∆
  protein stability index: 2.63 ± 0.11
san1∆
  protein stability index: 1.23 ± 0.18
ubr1∆
  protein stability index: 2.51 ± 0.11

## FMEAQGAGIQIIMQADL [FAS2]
doa10∆
  protein stability index: 2.36 ± 0.094
pdr5∆
  protein stability index: 2.33 ± 0.12
san1∆
  protein stability index: 2.08 ± 0.24
ubr1∆
  protein stability index: 2.11 ± 0.083

## MDKPLNFRILKSFTNDK [SRB5]
doa10∆
  protein stability index: 3.15 ± 0.06
pdr5∆
  protein stability index: 3.11 ± 0.059
san1∆
  protein stability index: 3.14 ± 0.042
ubr1∆
  protein stability index: 3.16 ± 0.036

## NRGNKKRHRSSYYDNDL [YML031W/NDC1]
doa10∆
  protein stability index: 3.02 ± 0.13
pdr5∆
  protein stability index: 3.29 ± 0.095
san1∆
  protein stability index: 3.24 ± 0.072
ubr1∆
  protein stability index: 3 ± 0.11

## GSMTKTWYVGNSRGKFD [SSN2]
doa10∆
  protein stability index: 3.74 ± 0.26
san1∆
  protein stability index: 3.08 ± 0.24

## LKSLNDIETQLCSMLQE [MED11]
doa10∆
  protein stability index: 2.54 ± 0.084
pdr5∆
  protein stability index: 2.91 ± 0.079
san1∆
  protein stability index: 2.73 ± 0.11
ubr1∆
  protein stability index: 3 ± 0.059

## NSNSNSGSLFGSNNAQT [YGL172W/NUP49]
doa10∆
  protein stability index: 2.6 ± 0.13
pdr5∆
  protein stability index: 3.24 ± 0.085
san1∆
  protein stability index: 2.9 ± 0.3
ubr1∆
  protein stability index: 3.11 ± 0.11

## IFSVHGNTVVDGEGKVD [YCG1]
doa10∆
  protein stability index: 3.12 ± 0.2
pdr5∆
  protein stability index: 3.46 ± 0.18

## IQYVTYLLTQQQIWKSP [SOH1]
doa10∆
  protein stability index: 2.16 ± 0.056
pdr5∆
  protein stability index: 2.07 ± 0.057
san1∆
  protein stability index: 1.71 ± 0.074
ubr1∆
  protein stability index: 2.09 ± 0.047

## IFLSKENSAVAAKEGLA [COR1]
doa10∆
  protein stability index: 1.48 ± 0.058
pdr5∆
  protein stability index: 2.19 ± 0.072
san1∆
  protein stability index: 1.95 ± 0.14
ubr1∆
  protein stability index: 1.6 ± 0.062

## MKPEVEQELAHILLTEL [FAS2]
doa10∆
  protein stability index: 3.006 ± 0.028
pdr5∆
  protein stability index: 2.988 ± 0.028
san1∆
  protein stability index: 2.753 ± 0.025
ubr1∆
  protein stability index: 2.722 ± 0.024

## LAIADVETKLETKVDEL [DSN1]
doa10∆
  protein stability index: 3.04 ± 0.084
pdr5∆
  protein stability index: 3.09 ± 0.074
san1∆
  protein stability index: 3.19 ± 0.05
ubr1∆
  protein stability index: 2.85 ± 0.087

## LVSANNDNNSPHTPVTR [YLR018C/POM34]
doa10∆
  protein stability index: 2.63 ± 0.12
pdr5∆
  protein stability index: 2.85 ± 0.072
san1∆
  protein stability index: 2.92 ± 0.08
ubr1∆
  protein stability index: 2.95 ± 0.12

## ELIALNLSEARLVIKEA [RPB4]
doa10∆
  protein stability index: 3.01 ± 0.16
ubr1∆
  protein stability index: 2.73 ± 0.18

## FEQTAFSRHAQQQTSTF [SIR4]
doa10∆
  protein stability index: 1.94 ± 0.07
pdr5∆
  protein stability index: 2.32 ± 0.092
san1∆
  protein stability index: 1.79 ± 0.093
ubr1∆
  protein stability index: 2.01 ± 0.055

## CYPQFAERDSQGGFYKQ [UBP6]
doa10∆
  protein stability index: 3.31 ± 0.065
pdr5∆
  protein stability index: 3.28 ± 0.064
san1∆
  protein stability index: 3.12 ± 0.058
ubr1∆
  protein stability index: 3.21 ± 0.044

## ISVIETIRVVTENKIFV [RPN5]
doa10∆
  protein stability index: 1.6 ± 0.14
pdr5∆
  protein stability index: 1.82 ± 0.1
san1∆
  protein stability index: 1.9 ± 0.27
ubr1∆
  protein stability index: 2.03 ± 0.093

## RRFYKNWYKSKKKAFTK [RPL3]
doa10∆
  protein stability index: 2.98 ± 0.16
pdr5∆
  protein stability index: 2.8 ± 0.11
san1∆
  protein stability index: 1.6 ± 0.2
ubr1∆
  protein stability index: 1.78 ± 0.08

## YDEDPYGFEDESAPITA [RPB2]
doa10∆
  protein stability index: 3.05 ± 0.071
pdr5∆
  protein stability index: 3.18 ± 0.054
san1∆
  protein stability index: 3.24 ± 0.048
ubr1∆
  protein stability index: 3.17 ± 0.065

## KAISVGANTSAAQTLLQ [PRE9]
doa10∆
  protein stability index: 2.74 ± 0.054
pdr5∆
  protein stability index: 2.92 ± 0.052
san1∆
  protein stability index: 2.77 ± 0.053
ubr1∆
  protein stability index: 2.92 ± 0.046

## IVNNDLPTTVVSNPGDN [MED2]
doa10∆
  protein stability index: 2.84 ± 0.051
pdr5∆
  protein stability index: 2.96 ± 0.052
san1∆
  protein stability index: 2.82 ± 0.052
ubr1∆
  protein stability index: 3.02 ± 0.033

## QLKNVQLDSYLVNGFSQ [MED2]
doa10∆
  protein stability index: 2.49 ± 0.062
pdr5∆
  protein stability index: 2.68 ± 0.088
san1∆
  protein stability index: 2.24 ± 0.11
ubr1∆
  protein stability index: 2.49 ± 0.042

## KVVIPNLLCYYNLRSLN [RPN3]
doa10∆
  protein stability index: 2.44 ± 0.19
pdr5∆
  protein stability index: 2.54 ± 0.081
san1∆
  protein stability index: 2.74 ± 0.13
ubr1∆
  protein stability index: 2.65 ± 0.1

## THLEIEPFTILGAVAGL [RET1]
doa10∆
  protein stability index: 1.42 ± 0.041
pdr5∆
  protein stability index: 1.91 ± 0.054
san1∆
  protein stability index: 2.08 ± 0.12
ubr1∆
  protein stability index: 2.04 ± 0.048

## MLWNLAAKKAMYTLSAQ [ASC1]
doa10∆
  protein stability index: 2.79 ± 0.069
pdr5∆
  protein stability index: 2.45 ± 0.062
san1∆
  protein stability index: 2.06 ± 0.073
ubr1∆
  protein stability index: 2.18 ± 0.077

## LLQEGGSLSGNSSSMEE [ESC2]
doa10∆
  protein stability index: 2.97 ± 0.11
pdr5∆
  protein stability index: 2.67 ± 0.16
san1∆
  protein stability index: 2.38 ± 0.13
ubr1∆
  protein stability index: 2.64 ± 0.096

## EINLSKIFQTTPEKDLF [YCS4]
doa10∆
  protein stability index: 2.72 ± 0.11
pdr5∆
  protein stability index: 2.29 ± 0.075
san1∆
  protein stability index: 1.5 ± 0.091
ubr1∆
  protein stability index: 2.7 ± 0.055

## NPPYSQCIVYPNCLFIL [SOH1]
doa10∆
  protein stability index: 1.76 ± 0.038
pdr5∆
  protein stability index: 2.06 ± 0.044
san1∆
  protein stability index: 1.86 ± 0.06
ubr1∆
  protein stability index: 1.86 ± 0.035

## ATPIPEEVQQAQTEIKL [RPS5]
doa10∆
  protein stability index: 2.82 ± 0.11
pdr5∆
  protein stability index: 2.89 ± 0.1
san1∆
  protein stability index: 2.97 ± 0.096
ubr1∆
  protein stability index: 3.05 ± 0.11

## HPIRVLMASVILDSLPS [YDL116W/NUP84]
doa10∆
  protein stability index: 1.7 ± 0.051
pdr5∆
  protein stability index: 1.52 ± 0.042
san1∆
  protein stability index: 1.62 ± 0.056
ubr1∆
  protein stability index: 1.62 ± 0.048

## LIIQYPPNNARRTYNTL [ISW2]
doa10∆
  protein stability index: 2.09 ± 0.037
pdr5∆
  protein stability index: 2.49 ± 0.042
san1∆
  protein stability index: 2.43 ± 0.052
ubr1∆
  protein stability index: 2.33 ± 0.031
